# Data from IntAct's records for PubMed 25730778.
# B1: Protein argonaute (Schizosaccharomyces pombe (strain ATCC 38366 / 972)), O74957 (parent)
# chain: MSYKPSSEIALRPGYGGLGKQITLKANFFQIISLPNETINQYHVIVGDGSRVPRKQSQLIWNSKEVKQYFGSSWMNSVYDGRSMCWSKGDIADGTIKVNIGSESHPREIEFSIQKSSKINLHTLSQFVNSKYSSDPQVLSSIMFLDLLLKKKPSETLFGFMHSFFTGENGVSLGGGVEAWKGFYQSIRPNQGFMSVNVDISSSAFWRNDSLLQILMEYTDCSNVRDLTRFDLKRLSRKFRFLKVTCQHRNNVGTDLANRVYSIEGFSSKSASDSFFVRRLNGEEQKISVAEYFLENHNVRLQYPNLPCILVKNGAMLPIEFCFVVKGQRYTAKLNSDQTANMIRFAVQRPFERVQQIDDFVHQMDWDTDPYLTQYGMKIQKKMLEVPARVLETPSIRYGGDCIERPVSGRWNLRGKRFLDPPRAPIRSWAVMCFTSTRRLPMRGIENFLQTYVQTLTSLGINFVMKKPPVLYADIRGSVEELCITLYKKAEQVGNAPPDYLFFILDKNSPEPYGSIKRVCNTMLGVPSQCAISKHILQSKPQYCANLGMKINVKVGGINCSLIPKSNPLGNVPTLILGGDVYHPGVGATGVSIASIVASVDLNGCKYTAVSRSQPRHQEVIEGMKDIVVYLLQGFRAMTKQQPQRIIYFRDGTSEGQFLSVINDELSQIKEACHSLSPKYNPKILVCTTQKRHHARFFIKNKSDGDRNGNPLPGTIIEKHVTHPYQYDFYLISHPSLQGVSVPVHYTVLHDEIQMPPDQFQTLCYNLCYVYARATSAVSLVPPVYYAHLVSNLARYQDVTADDTFVETSEASMDQEVKPLLALSSKLKTKMWYM
# partner: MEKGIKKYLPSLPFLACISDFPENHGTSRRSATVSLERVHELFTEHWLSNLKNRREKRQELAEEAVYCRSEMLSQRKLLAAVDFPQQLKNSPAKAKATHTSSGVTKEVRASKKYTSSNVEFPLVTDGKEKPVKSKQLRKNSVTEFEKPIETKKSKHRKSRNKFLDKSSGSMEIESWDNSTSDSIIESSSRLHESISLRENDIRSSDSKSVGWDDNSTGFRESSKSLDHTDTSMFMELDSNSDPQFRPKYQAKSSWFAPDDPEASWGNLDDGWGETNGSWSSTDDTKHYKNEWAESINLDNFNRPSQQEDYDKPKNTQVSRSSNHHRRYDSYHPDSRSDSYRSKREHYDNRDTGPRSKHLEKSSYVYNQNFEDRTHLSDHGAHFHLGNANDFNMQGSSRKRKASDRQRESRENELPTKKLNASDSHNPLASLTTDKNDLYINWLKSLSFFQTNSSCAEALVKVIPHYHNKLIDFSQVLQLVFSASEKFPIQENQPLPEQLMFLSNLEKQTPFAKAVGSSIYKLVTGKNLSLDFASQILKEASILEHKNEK
# Variants of: B1
# Details: with tas3_schpo tas3, O94687
row,Variant,effect of a mutation on the interaction
1,R773E,disrupting interaction strength
2,F276A;R773E,disrupting interaction strength
